Positions count from the first letter of the chain named.
T1: peptide 6 (TIRC7 derived peptide)
T1 construct: also called Peptid6; Vol 6
T1 peptide: DLPDASVNGWSSDE

B1: chimeric Neliximab (antibody, V domains shown)
VH: EVQLQQSGPELVKPGASVKMSCKASGYTFTTYVMHWVKQKPGQGLEWIGYINPYNDGTNYNEKFKGKATLTSDKSSSTAYMELSTLTSEDSAVYYCAEFITKTVGGSNWYLDVWGAGTTVTVSS
VL: QIVLTQSPAIMSASPGEKVTMTCSASSSISYIHWFQQKPGTSPKRWIYDTSKLPSGVPARFSGSGSGTSYSLTISSMEAEDAATYYCHQRSSYTWTFGGGTKLEIKR
notes: Murine VH and VL joined to human gamma 1 (pConGamma1f vector) and human kappa (pConKappa vector) constant regions, made in NSO or CHO cells; also called chimeric antibody of clone 17-1; chimerized #17
B2: murine Neliximab (antibody, V domains shown)
VH: B1 VH
VL: B1 VL
notes: also called #17; Clone 17
B3: murine Metiliximab (antibody, V domains shown)
VH: EVQLQQSGPELVKPGASVKMSCKASGYTFTSYVIHWVKQKPGQGLEWIGYINPYNYDTKYNEKFKGEATLTSDKSSNTAYMELSSLTSEDSAVYYCAGFFTRAVGGSYWYLDVWGAGTTVTVSS
VL: B1 VL with P54V, S76N, E80A, S92A, Y93S
notes: also called #9; Clone 9

Target: T1, peptide 6 (TIRC7 derived peptide)
Assay: solution equilibrium titration with peptide, free antibody by ELISA (method of Friquet et al 1985), Klotz plot

Kd | Binder
1 nM | B1
1 nM | B2
0.5 nM | B3
